Measurements reported in PMC3226724.

Target: T1, PriB (Escherichia coli, UniProt P07013 1-104)
T1 sequence: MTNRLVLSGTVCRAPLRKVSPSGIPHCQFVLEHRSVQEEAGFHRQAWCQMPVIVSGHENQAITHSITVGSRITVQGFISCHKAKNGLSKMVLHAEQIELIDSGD
Assay: sedimentation equilibrium

TTTTTTTTTTTTTTTTTTTTTTTTTT (ssDNA) [5'Fl-dT(pT)25 (called 27-mer)]
binding result: binds
